{
  "source": "the DeepSol protein solubility set",
  "experiment": "soluble on expression in E. coli; label from the status in PepcDB or PDB records",
  "data": [
    {"sequence": "MLHITAAKARAGGQIGGVFCLAQCSLNVLVSGMQTQPLPPLISARPVGRGARSNDAGRFEPLERVAEHDGWEREEELPPLRTQVSLETARSLISYNRSPDLPFDRSINPYRGCEHGCSYCFARPSHAYLGLSPGLDFETRLVARPNAAEVLRAELSARRYKVAPIAIGTNTDPYQPLEKTHAITRACLQVLAEFNHPVAIVTRGALIERDLDILAPMAARGLVRVGISLTTLDAALARRMEPRAPSPKRRLAMIRALNGAGVPVRVMTSPLIPGLTDHELESLLAAGAEAGADTASWIMLRLPREVSPLWQEWLAEHAPARAAKVMARLREMHGGRDYDPRWGHRMRGEGEYAQMIAKRFRAACKRIGLAQEAPALRCDLFRVPPQPGDQLSLF", "values": [
      {"measurement": "soluble on expression in E. coli", "result": "not soluble"}
    ]},
    {"sequence": "MGSDKIHHHHHHMSAFYDLYETPDPNDTGEKQPLHARIVPSGTYSKKDFIERVSRHQPFPHNIIEGVLGAVVDELAEALADGYIVELGELGHFSISLKCTHKVMTKKEIRAESIRFDNVHLRTSKEFKKKIKREIELERVENSNEKTHNAKISIEDRLQMLQEFLKKNGGITRIEYSRLTGLPRLKAIDDLNTFIKEGTLRKRGAGRTVFYVWKQKE", "values": [
      {"measurement": "soluble on expression in E. coli", "result": "not soluble"}
    ]},
    {"sequence": "MGSDKIHHHHHHMKVICITQARMGSSRLPGKVLKIIGTRPMLEYHVRRVAKSKLINHHIIATSNQENDLPIVEYCQQNNIDYYRGNETDVLGRFYETALSVHAEPDDIIIRLTGDCPLICPQLIDDAIKLQFSGESQQYTHVSLAYFPRGFDVEVFRMRSLSEAYFKALAPAQREHVTLYLYSKPDALIVPVTLHGNPSWSHFRLCVDEQDDFLLVEQLICRLGEQWLDAGPRQICELLEGNPQLVTINAHIHQRTAH", "values": [
      {"measurement": "soluble on expression in E. coli", "result": "not soluble"}
    ]},
    {"sequence": "MTDSKYDYSDITPVDINTEEPQICQILYDEDYKQIMGLLLALMKAEEYSERALHITELGINELASHYTIWIYRFNILKNLPNRNLYDELDWCEEIALDNEKNYQIWNYRQLIIGQIMELNNNDFDPYREFDILEAMLSSDPKNHHVWSYRKWLVDTFDLHNDAKELSFVDKVIDTDLKNNSAWSHRFFLLFSKKHLATDNTIDEELNYVKDKIVKCPQNPSTWNYLLGIHERFDRSITQLEEFSLQFVDLEKDQVTSSFALETLAKIYTQQKKYNESRTVYDLLKSKYNPIRSNFWDYQISKLTSV", "values": [
      {"measurement": "soluble on expression in E. coli", "result": "soluble"}
    ]},
    {"sequence": "MQPIPDVNQRIARISAHLHPPKSQMEESSALRRANCRAKGGAPGFKVAILGAAGGIGQPLAMLMKMNPLVSVLHLYDVVNAPGVTADISHMDTGAVVRGFLGQQQLEAALTGMDLIIVPAGVPRKPGMTRDDLFKINAGIVKTLCEGIAKCCPRAIVNLISNPVNSTVPIAAEVFKKAGTYDPKRLLGVTMLDVVRANTFVAEVLGLDPRDVDVPVVGGHAGVTILPLLSQVKPPSSFTQEEISYLTDRIQNGGTEVVEAKAGAGSATLSMAYAAVKFADACLRGLRGDAGVIECAFVSSQVTELPFFASKVRLGRNGIEEVYSLGPLNEYERIGLEKAKKELAGSIEKGVSFIRSHHHHHH", "values": [
      {"measurement": "soluble on expression in E. coli", "result": "soluble"}
    ]},
    {"sequence": "GIEIVNRKAVWYLTSEIKETETGIEVSAGELHKGDEEVFPVEEVSFDLTPDDTYPVEYMLYLHMNVQTKKVSWSLCKAYLDGEGYCDYQGNERLIMYPVSVTVFPNGTREGTIFLYEKEDREPDRKPPVIVEPQPVGEIGTPDIDE", "values": [
      {"measurement": "soluble on expression in E. coli", "result": "soluble"}
    ]},
    {"sequence": "MSLTNFSQQHLPLVEKVMVDFIAEYTENERLKEAMLYSIHAGGKRLRPLLVLTTVAAFQKEMETQDYQVAASLEMIHTYSLIHDDLPAMDDDDLRRGKPTNHKVFGEATAILAGDGLLTGAFQLLSLSQLGLSEKVLLMQQLAKAAGNQGMVSGQMGDIEGEKVSLTLEELAAVHEKKTGALIEFALIAGGVLANQTEEVIGLLTQFAHHYGLAFQIRDDLLDATSTEADLGKKVGRDEALNKSTYPALLGIAGAKDALTHQLAEGSAVLEKIKANVPNFSEEHLANLLTQLQLREGHHHHHH", "values": [
      {"measurement": "soluble on expression in E. coli", "result": "soluble"}
    ]},
    {"sequence": "MGSDKIHHHHHHMARIARVIATGIPHHVTQRGNRRMPTFFNDEDYRAYIALLGEWCRKCGVDIWAYCLMPNHVHLIAVPETDDGLRRGIGEAHRRYSRMINFRENWRGHLWQGRFASFPMDESYLLAAARYVEMNPVRARLTPKAALWPWSSARAHLDRMDDELVKVAPLLELVGDWSLFLAGTGEEDQLNDIRKHERTGRPLGTEEFVERLESALERPLKKGKPGPKGNDN", "values": [
      {"measurement": "soluble on expression in E. coli", "result": "not soluble"}
    ]},
    {"sequence": "MIPPSLPAELKAALEQLLQGTQRADAATRAERISLNYRGGGTSAPITSEADALAYAGARMPATYAAVIACLNALTAIRPDFAPATLLDVGAGPGTASWAAAQAFESLQGFTLLDANPALRNLALRLTEARRLSAIDYRLGDAGKALADAPEVTLVIASYLINELGDAARASFADALWRKTSDTLLVVEPGTPAGYQRILQLRDRLIAQGAHVIAPCPHENACPLAAPDWCHFVQRLPRSKLHLQLKSADVPFEDEKFSYVALTRVPLPQRPARVLTQPEQTKAAITAKLCTPAGKLKLAVAARRDKPAYARFRRLDWGDALEAQADLEHHHHHH", "values": [
      {"measurement": "soluble on expression in E. coli", "result": "not soluble"}
    ]},
    {"sequence": "MKITIIGAGNIGSAVAACLAKGHLYNEKDIIISTPHTDKLENLHKQFPAIRIMTENQYAISEADIIILAVKPCIVDEVLSPLRFSRTQILVSLVTGISISHLAHLSETEMPIFRVVPNIAITEHSSLTLITSRKAGKEHQQLIKQTFEEGGKCLFAEEKQLDIISALTSSGIAFALKYIHAAMQAGIELGISAEDAMRMTAYSMEGATELILNHDTHPLLEIEKAATPGGATIKGLNELEHRGFTSAVIHAIKSSATVSTDKETEE", "values": [
      {"measurement": "soluble on expression in E. coli", "result": "not soluble"}
    ]},
    {"sequence": "MEKELDLSQYSVRTDLAVEAKDIALENQPKPNNQSEIKGVIVKEKEEQGVKISMVEITEEGAEAIGKKKGRYVTLESVGIREQDTEKQEEAMEEVFAKELNFFIKSLNIPDDASCLVVGLGNLSVTPDALGPKAVDNLLITRHLFELQPESVQDGFRPVSAIVPGVMGMTGIETSDIIFGVVKKVNPDFIIAIDALAARSIERVNATIQISDSGIHPGSGVGNKRKEISYETLGIPVIAIGIPTVVDAVSITSDTIDFILKHFGREMKEQGKPSKSLLPSGMTFGEKKKLTEDDLPNEEQRQTYLGMIGTLPDEEKRRLIHEVLAPLGHNLMVTPKEVDMFIEDMANVVAGGLNAALHHEVDQENFGAYTH", "values": [
      {"measurement": "soluble on expression in E. coli", "result": "soluble"}
    ]},
    {"sequence": "SLFITDKRVKESATALNPSMFQGLYLQDQMLKDPTYLPIYGSSELSRLDEFHPSNYFQVNNEGFTPYLVGKGGSQSLIHSLNFAAHMDQLKGKKIVFIVSPQWFIKRGSDEQHFAPNYSALQGLDLAFNDQIDPEIKKKMMKRMLRFKAVQNDAILSELYKAMVNGQTWKVNALKPAAKVYYSMLEKKDLYYSTTESSGPKRYISQSVKDKSWSELNKLADQSGKRHSGSNDFHIDNPVYKKLKPKVPKLKGKNKGRSYAVSPEYGDFEMMLDILKDAGAEPMFVTIPVNGKWYDYTGFPKKGRTDYYKKVNKQIRAKGFQVADFSGHEYDPYFMKDTIHIGWKGWVYVDKAIDEFYKTGKVTSS", "values": [
      {"measurement": "soluble on expression in E. coli", "result": "soluble"}
    ]},
    {"sequence": "SDPRRNFQPGGYDSRNTFTSGSFGPPDFGESDEAELVSVSWNQDYSCFAAGTSHGFRIYNCEPFKETFRRELKDGGFKIVEMLFRSNILALVGGGPNSQYPSNKVLIWDDHQGRCISEFTFRSEIRAVKLRRDRIVVVLEHKIYVYNFMDLRLLHQIENMANPRGLCCLSHHMNTSVLACPGIRRGEVRVEHFGLNMVQIINAHDSNIACMTLTLDGLLLATASTKGTLIRIFNTMDGTRLQEVRRGVDRADIYSIALSPNVQWLAVSSDKGTVHIFSLRVRVIGEDAYSTEHETSSNSLQPLVSPASGANPGSSLSFLRGVLPKYFSSEWSFSQFHVPEVTQYFAAFGAQNTIAIIGLDGSFYRCNFDPVNGGEMTQLEHFHFLKQDSPR", "values": [
      {"measurement": "soluble on expression in E. coli", "result": "soluble"}
    ]},
    {"sequence": "TPDRHQFPGLANKTYFNFGGQGILPTVALEAITAMYGYLQENGPFSIAANQHIQQLIAQLRQALAETFNVDPNTITITDNVTTGCDIVLWGLDWHQGDEILLTDCEHPGIIAIVQAIAARFGITYRFFPVAATLNQGDAAAVLANHLGPKTRLVILSHLLWNTGQVLPLAEIMAVCRRHQGNYPVRVLVDGAQSAGSLPLDFSRLEVDYYAFTGHAWFAGPAGVGGLYIHGDCLGEINPTYVGWRSITYGAKGEPTGWAEGGKRFEVATSAYPQYAGLLAALQLHQRQGTAEERYQAICQRSEFLWRGLNQLPHVHCLATSAPQAGLVSFTVDSPLGHRAIVQKLEEQRIYLRTIADPDCIRACCHYITDEEEINHLLARLADFGP", "values": [
      {"measurement": "soluble on expression in E. coli", "result": "soluble"}
    ]},
    {"sequence": "MRFFYDTEFIEDGETIDLVSIGIVCEDGREYYAVSTDADHSRANKWVRDNVLDKMPNPSSTLWKSNATIRQEVYEFLTSTPGNTELWAWVGAYDHVVLAQLWGDMRGLPKELPRYTHELKQYWEMAGRPRLPKLPEGNHDALVDARHNLQKFKICAESLPLNKRNVVNR", "values": [
      {"measurement": "soluble on expression in E. coli", "result": "not soluble"}
    ]}
  ]
}
